According to patent US20140017259A1 (TAKIS S R L, published 2014):

Assays:
[1] = molecular target: T1, human ErbB3 15mer peptide QCNGHCFGPNPNQCC (human); assay: ELISA on plate-coated 15mer peptides, A3 at 1 µg/ml
T1 construct: One of 158 15mer peptides of human ErbB3 overlapping by 11 residues (Jerini Peptide Technologies), coated on the ELISA plate
T1 peptide: QCNGHCFGPNPNQCC
Protocol: To identify the epitope recognized by A3 antibody, a human ErbB3 peptide collection consisting of 158 15mer peptides overlapping by 11 residues (Jerini Peptide Technologies, Berlin, Germany) has been utilized. Each peptide was resuspended in DMSO at 40 mg/ml and diluted in sodium carbonate buffer (10 mM, pH 9.6) at 1 μg/ml in 96well plates (Nunc Maxisorp) at a volume of 100 μl/well and incubated over night at 4° C. Human ErbB3 ECD-Fc protein (RnD) and buffer coated wells were used as positive and negative controls of the assay, respectively. The day after, plates were washed with 200 μl PBS 1× pH 7.4 and blocked with PBS 5% BSA for 2 hr at room temperature. After three washes with PBS, 0.05% Tween20 (PBST), plates were incubated for 2 hours at room temperature with A3 antibody diluted at 1 μg/ml in PBST, 1% BSA for 2 hours at room temperature. Plates were then washed three times in PBST and then incubated with 1/5000 diluted goat anti-mouse IgG HRP conjugated (Abcam) for one hour. After three washing in PBST, 100 μl/well 3, 3′, 5, 5′-Tetramethylbenzidine (TMB) Liquid Substrate (Sigma) were added and the reaction stopped 20 minutes later with 50 μl/well Stop Reagent for TMB Substrate (Sigma). OD₄₅₀ was determined at an ELISA reader (Perkin Elmer).

HER1/EGFR = molecular target: T2, HER1/EGFR (human, UniProt P00533 25-1210); assay: flow cytometry on transiently transfected CHO cells
T2 construct: whole, on cells

HER2 = molecular target: T3, HER2 (human, UniProt P04626 23-1255); assay: as above
T3 construct: whole, on cells; also called ErbB2

HER4 = molecular target: T4, HER4 (human, UniProt Q15303 26-1308); assay: as above
T4 construct: whole, on cells; also called ErbB4
T4 sequence (Q15303 26-1308): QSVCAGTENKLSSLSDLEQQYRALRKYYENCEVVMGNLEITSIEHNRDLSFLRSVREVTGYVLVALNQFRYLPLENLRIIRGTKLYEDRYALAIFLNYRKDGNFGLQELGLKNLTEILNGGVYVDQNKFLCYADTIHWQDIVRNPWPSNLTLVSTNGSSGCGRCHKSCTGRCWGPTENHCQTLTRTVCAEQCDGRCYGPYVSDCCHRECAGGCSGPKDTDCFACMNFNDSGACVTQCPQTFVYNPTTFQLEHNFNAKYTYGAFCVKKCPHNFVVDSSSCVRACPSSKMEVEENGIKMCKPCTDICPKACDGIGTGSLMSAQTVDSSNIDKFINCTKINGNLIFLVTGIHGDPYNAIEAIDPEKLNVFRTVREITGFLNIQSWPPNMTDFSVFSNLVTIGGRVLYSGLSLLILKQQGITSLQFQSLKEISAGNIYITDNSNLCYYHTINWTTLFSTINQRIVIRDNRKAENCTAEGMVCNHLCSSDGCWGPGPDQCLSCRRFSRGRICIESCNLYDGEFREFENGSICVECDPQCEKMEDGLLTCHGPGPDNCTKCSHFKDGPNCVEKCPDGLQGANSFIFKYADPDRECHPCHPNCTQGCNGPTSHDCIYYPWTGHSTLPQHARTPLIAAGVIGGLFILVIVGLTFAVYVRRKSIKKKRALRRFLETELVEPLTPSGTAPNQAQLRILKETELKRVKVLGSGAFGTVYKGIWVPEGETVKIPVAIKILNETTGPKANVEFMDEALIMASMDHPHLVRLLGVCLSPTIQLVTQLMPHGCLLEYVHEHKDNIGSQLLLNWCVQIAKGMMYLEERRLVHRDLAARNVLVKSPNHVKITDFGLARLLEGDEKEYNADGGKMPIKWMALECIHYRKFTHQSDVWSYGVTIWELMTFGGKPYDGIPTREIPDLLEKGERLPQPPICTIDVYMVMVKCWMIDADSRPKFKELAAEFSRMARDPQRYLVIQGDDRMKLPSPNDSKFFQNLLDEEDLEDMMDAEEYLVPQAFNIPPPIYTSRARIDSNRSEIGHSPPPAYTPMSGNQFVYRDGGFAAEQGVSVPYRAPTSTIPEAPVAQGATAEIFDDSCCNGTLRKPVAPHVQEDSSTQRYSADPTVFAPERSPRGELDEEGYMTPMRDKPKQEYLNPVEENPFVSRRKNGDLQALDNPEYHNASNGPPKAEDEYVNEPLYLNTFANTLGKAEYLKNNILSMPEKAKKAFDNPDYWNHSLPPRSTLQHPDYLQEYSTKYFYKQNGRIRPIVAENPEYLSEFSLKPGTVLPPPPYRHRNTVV

mouse HER3 [2] = molecular target: T5, mouse HER3 (mouse, UniProt Q61526 20-1339); assay: flow cytometry on CHO cells transiently transfected with mouse HER3, antibody at 10 µg/ml
T5 construct: whole, on cells; also called murine HER3
T5 sequence (Q61526 20-1339): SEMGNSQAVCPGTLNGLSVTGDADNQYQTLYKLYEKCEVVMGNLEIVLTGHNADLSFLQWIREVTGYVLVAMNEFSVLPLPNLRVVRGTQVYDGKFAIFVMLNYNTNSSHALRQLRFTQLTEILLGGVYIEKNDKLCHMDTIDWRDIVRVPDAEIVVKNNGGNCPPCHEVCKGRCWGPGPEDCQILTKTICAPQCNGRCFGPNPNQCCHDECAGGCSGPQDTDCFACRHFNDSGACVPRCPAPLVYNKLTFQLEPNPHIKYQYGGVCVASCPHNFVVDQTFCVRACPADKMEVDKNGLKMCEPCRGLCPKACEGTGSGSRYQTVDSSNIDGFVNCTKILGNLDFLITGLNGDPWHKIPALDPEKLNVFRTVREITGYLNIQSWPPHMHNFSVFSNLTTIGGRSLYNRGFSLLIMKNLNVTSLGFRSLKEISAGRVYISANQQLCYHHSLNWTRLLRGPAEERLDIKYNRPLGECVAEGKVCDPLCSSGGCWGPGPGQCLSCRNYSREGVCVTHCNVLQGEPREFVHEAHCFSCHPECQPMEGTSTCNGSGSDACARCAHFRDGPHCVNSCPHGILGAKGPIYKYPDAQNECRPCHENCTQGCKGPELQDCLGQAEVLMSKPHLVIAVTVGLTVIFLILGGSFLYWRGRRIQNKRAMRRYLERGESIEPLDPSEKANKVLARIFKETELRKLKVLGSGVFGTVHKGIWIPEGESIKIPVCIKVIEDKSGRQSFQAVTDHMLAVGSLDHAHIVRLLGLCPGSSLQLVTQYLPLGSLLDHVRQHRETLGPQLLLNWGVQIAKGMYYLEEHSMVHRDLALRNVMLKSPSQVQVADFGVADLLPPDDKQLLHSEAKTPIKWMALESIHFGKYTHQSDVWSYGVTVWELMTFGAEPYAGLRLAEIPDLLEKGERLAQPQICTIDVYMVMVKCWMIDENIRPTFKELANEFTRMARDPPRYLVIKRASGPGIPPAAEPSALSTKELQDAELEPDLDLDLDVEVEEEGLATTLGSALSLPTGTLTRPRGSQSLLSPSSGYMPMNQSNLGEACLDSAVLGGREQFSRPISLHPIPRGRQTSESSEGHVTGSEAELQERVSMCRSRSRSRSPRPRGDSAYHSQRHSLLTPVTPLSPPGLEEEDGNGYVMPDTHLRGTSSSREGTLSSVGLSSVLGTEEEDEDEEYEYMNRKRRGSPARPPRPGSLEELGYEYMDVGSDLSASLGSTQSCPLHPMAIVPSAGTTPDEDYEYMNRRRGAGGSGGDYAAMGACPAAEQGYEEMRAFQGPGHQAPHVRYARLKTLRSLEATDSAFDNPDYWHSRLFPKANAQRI

[3] = molecular target: T6, Recombinant protein HER3-ECD-Fc (RnD Systems) (human, UniProt P21860 20-643); assay: SPR, Biacore T100: antibody captured on an anti-Fc CM5 chip, HER3-ECD-Fc injected as analyte
T6 construct: extracellular domain; also called Human ErbB3 ECD-Fc protein (RnD); not shown: Fc part of the bought fusion
T6 sequence (P21860 20-643): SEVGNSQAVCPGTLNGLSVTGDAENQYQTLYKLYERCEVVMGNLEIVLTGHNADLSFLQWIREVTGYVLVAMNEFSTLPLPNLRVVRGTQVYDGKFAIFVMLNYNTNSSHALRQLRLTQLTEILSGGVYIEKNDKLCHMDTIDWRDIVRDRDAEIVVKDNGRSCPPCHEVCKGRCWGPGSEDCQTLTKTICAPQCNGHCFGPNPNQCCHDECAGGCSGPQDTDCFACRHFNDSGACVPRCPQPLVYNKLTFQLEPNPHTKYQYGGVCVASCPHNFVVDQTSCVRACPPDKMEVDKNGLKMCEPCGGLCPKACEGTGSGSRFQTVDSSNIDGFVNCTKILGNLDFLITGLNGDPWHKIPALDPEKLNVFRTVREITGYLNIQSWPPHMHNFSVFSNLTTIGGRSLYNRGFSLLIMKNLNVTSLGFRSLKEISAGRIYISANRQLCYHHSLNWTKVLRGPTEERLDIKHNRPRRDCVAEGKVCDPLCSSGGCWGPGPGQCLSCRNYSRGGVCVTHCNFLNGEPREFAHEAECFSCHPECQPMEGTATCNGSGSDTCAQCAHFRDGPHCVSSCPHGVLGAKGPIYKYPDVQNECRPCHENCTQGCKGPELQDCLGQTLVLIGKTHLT
Protocol: Among the hybridomas described above, two antibodies, A3 and A4, were further selected for a biochemical and functional characterization. In particular, the following assays have been performed: [0174] Bioacore analysis. Affinity for HER3 and kₒₙ/koff were determined by Surface Plasmon Resonance using a Biacore T100 instrument. A biosensor chip CM5 (GE Healthcare) was covalently bound to an anti-Fc (8000 RU) and then treated with antibodies at different concentrations (<1000 RU). Recombinant protein HER3-ECD-Fc (RnD Systems) in HBS-EP buffer at the analyte concentration 1:1 was injected for 2 minutes at 30 μl/min, followed by a 10 minutes dissociation phase. [0175] Cross-reactivity with mouse HER3 receptor and with other human ErbB receptors. […] After a wash in FACS buffer, an anti-mouse IgG conjugated with Phycoerythrin (PE, Becton Dickinson) was added and cells were analyzed by a FACSCalibur (Becton Dickinson). […] After 2 washes with PBS, 0.05% Tween20, the signal was measured by incubation with a biotinylated goat anti-NRG-1β antibody (RnD Systems) and Streptavidin conjugated with peroxidase and utilizing an HRP substrate (Pierce). Data were acquired with an ELISA reader at 450 nm. […]

[4] = molecular target: T6, Recombinant protein HER3-ECD-Fc (RnD …); assay: competition ELISA (NRG Ligand Blocking): HER3-ECD-Fc on the plate, antibody, then 10 nM NRG-1β, bound NRG detected
mouse HER3 [5] = molecular target: T5, mouse HER3; assay: flow cytometry on CHO cells transiently transfected with mouse HER3

B1: Antibody A3 (antibody, V domains shown)
VH: QVTLKESGPGKLQPSQTLSLTCSFSGFSLSTYGMGVGWIRQPLGKGLEWLANIWWNDDKYYNSALKSRLTISKDTSNNQVFLKISSVDTADAATYYCVQIANPYWYFDVWGAGTTVTVSS
VL: DVLMTQTPLSLPVSLGDQASISCRSSQSIVHSYGNTYLEWYLQKPGQSPKLLIYRVSNRFSGVPDRFSGSGSGTDFTLKISRVEAEDLGVYYCFQGSHVPFTFGTGTKLEIKR
notes: Murine monoclonal IgG from a hybridoma of BALB/c mice immunised with HER3 H584F DNA; also called A3 monoclonal antibody
binding result [1]: binds | binding result (HER1/EGFR): no binding (tested: 10 µg/ml) | binding result (HER2): no binding (tested: 10 µg/ml) | binding result (HER4): no binding (tested: 10 µg/ml) | binding result (mouse HER3 [2]): binds | Kd [3]: 7.4 nM | IC50 [4]: 1.1 nM

B2: Antibody A4 (antibody, V domains shown)
VH: QVQLQQPGSELVRPGASVKLSCKASGYTFTIFWIHWVKQRPGQGLEWIGNIYPGSGGTNYDEKFKSKATLTVDTFSSTAYMQLSSLTSEDSAVYYCTRWGTGKDYWGQGTTLKVSS
VL: QIVLTQSPAIMSASPGEKVTMTCRARSSVSSSYLHWYQQKPGSSPKLWIYSTSNLALGVPARFSGSGSGTSYSLTISSVEAEDAATYYCQQYDSSPFTFGTGTKLEIKR
notes: Murine monoclonal IgG with a kappa light chain, from a hybridoma; also called murine A4; A4 monoclonal antibody
binding result (HER1/EGFR): no binding (tested: 10 µg/ml) | binding result (HER2): no binding (tested: 10 µg/ml) | binding result (HER4): no binding (tested: 10 µg/ml) | binding result (mouse HER3 [5]): no binding (tested: 10 µg/ml) | Kd [3]: 2.4 nM | IC50 [4]: 2.8 nM
